Measured values as given in US20230220021A1 (UNIVERSITY OF COPENHAGEN, published 2023).
[ ]: non-standard residue; d: D form.

B1: cyclic nNOS β-hairpin peptide L107K (peptide)
peptide: cyclo(THKETTFTGDGTPKTIRVTQ[dP]GQ)
SMILES: CC[C@H](C)[C@@H]1NC(=O)[C@H]([C@@H](C)O)NC(=O)[C@H](CCCCN)NC(=O)[C@@H]2CCCN2C(=O)[C@H]([C@@H](C)O)NC(=O)CNC(=O)[C@H](CC(=O)O)NC(=O)CNC(=O)[C@H]([C@@H](C)O)NC(=O)[C@H](Cc2ccccc2)NC(=O)[C@H]([C@@H](C)O)NC(=O)[C@H]([C@@H](C)O)NC(=O)[C@H](CCC(=O)O)NC(=O)[C@H](CCCCN)NC(=O)[C@H](Cc2c[nH]cn2)NC(=O)[C@H]([C@@H](C)O)NC(=O)[C@H](CCC(N)=O)NC(=O)CNC(=O)[C@H]2CCCN2C(=O)[C@H](CCC(N)=O)NC(=O)[C@H]([C@@H](C)O)NC(=O)[C@H](C(C)C)NC(=O)[C@H](CCCNC(=N)N)NC1=O
B2: cyclic nNOS β-hairpin peptide T119S (peptide)
peptide: cyclo(THLETTFTGDGTPKSIRVTQ[dP]GQ)
SMILES: CC[C@H](C)[C@@H]1NC(=O)[C@H](CO)NC(=O)[C@H](CCCCN)NC(=O)[C@@H]2CCCN2C(=O)[C@H]([C@@H](C)O)NC(=O)CNC(=O)[C@H](CC(=O)O)NC(=O)CNC(=O)[C@H]([C@@H](C)O)NC(=O)[C@H](Cc2ccccc2)NC(=O)[C@H]([C@@H](C)O)NC(=O)[C@H]([C@@H](C)O)NC(=O)[C@H](CCC(=O)O)NC(=O)[C@H](CC(C)C)NC(=O)[C@H](Cc2c[nH]cn2)NC(=O)[C@H]([C@@H](C)O)NC(=O)[C@H](CCC(N)=O)NC(=O)CNC(=O)[C@H]2CCCN2C(=O)[C@H](CCC(N)=O)NC(=O)[C@H]([C@@H](C)O)NC(=O)[C@H](C(C)C)NC(=O)[C@H](CCCNC(=N)N)NC1=O
B3: cyclic nNOS β-hairpin peptide T119N (peptide)
peptide: cyclo(THLETTFTGDGTPKNIRVTQ[dP]GQ)
SMILES: CC[C@H](C)[C@@H]1NC(=O)[C@H](CC(N)=O)NC(=O)[C@H](CCCCN)NC(=O)[C@@H]2CCCN2C(=O)[C@H]([C@@H](C)O)NC(=O)CNC(=O)[C@H](CC(=O)O)NC(=O)CNC(=O)[C@H]([C@@H](C)O)NC(=O)[C@H](Cc2ccccc2)NC(=O)[C@H]([C@@H](C)O)NC(=O)[C@H]([C@@H](C)O)NC(=O)[C@H](CCC(=O)O)NC(=O)[C@H](CC(C)C)NC(=O)[C@H](Cc2c[nH]cn2)NC(=O)[C@H]([C@@H](C)O)NC(=O)[C@H](CCC(N)=O)NC(=O)CNC(=O)[C@H]2CCCN2C(=O)[C@H](CCC(N)=O)NC(=O)[C@H]([C@@H](C)O)NC(=O)[C@H](C(C)C)NC(=O)[C@H](CCCNC(=N)N)NC1=O
B4: cyclic nNOS β-hairpin peptide T109S (peptide)
peptide: cyclo(THLESTFTGDGTPKTIRVTQ[dP]GQ)
SMILES: CC[C@H](C)[C@@H]1NC(=O)[C@H]([C@@H](C)O)NC(=O)[C@H](CCCCN)NC(=O)[C@@H]2CCCN2C(=O)[C@H]([C@@H](C)O)NC(=O)CNC(=O)[C@H](CC(=O)O)NC(=O)CNC(=O)[C@H]([C@@H](C)O)NC(=O)[C@H](Cc2ccccc2)NC(=O)[C@H]([C@@H](C)O)NC(=O)[C@H](CO)NC(=O)[C@H](CCC(=O)O)NC(=O)[C@H](CC(C)C)NC(=O)[C@H](Cc2c[nH]cn2)NC(=O)[C@H]([C@@H](C)O)NC(=O)[C@H](CCC(N)=O)NC(=O)CNC(=O)[C@H]2CCCN2C(=O)[C@H](CCC(N)=O)NC(=O)[C@H]([C@@H](C)O)NC(=O)[C@H](C(C)C)NC(=O)[C@H](CCCNC(=N)N)NC1=O
B5: cyclic nNOS β-hairpin peptide T123F (peptide)
peptide: cyclo(THLETTFTGDGTPKTIRVFQ[dP]GQ)
SMILES: CC[C@H](C)[C@@H]1NC(=O)[C@H]([C@@H](C)O)NC(=O)[C@H](CCCCN)NC(=O)[C@@H]2CCCN2C(=O)[C@H]([C@@H](C)O)NC(=O)CNC(=O)[C@H](CC(=O)O)NC(=O)CNC(=O)[C@H]([C@@H](C)O)NC(=O)[C@H](Cc2ccccc2)NC(=O)[C@H]([C@@H](C)O)NC(=O)[C@H]([C@@H](C)O)NC(=O)[C@H](CCC(=O)O)NC(=O)[C@H](CC(C)C)NC(=O)[C@H](Cc2c[nH]cn2)NC(=O)[C@H]([C@@H](C)O)NC(=O)[C@H](CCC(N)=O)NC(=O)CNC(=O)[C@H]2CCCN2C(=O)[C@H](CCC(N)=O)NC(=O)[C@H](Cc2ccccc2)NC(=O)[C@H](C(C)C)NC(=O)[C@H](CCCNC(=N)N)NC1=O
B6: cyclic nNOS β-hairpin peptide T112D (peptide)
peptide: cyclo(THLETTFDGDGTPKTIRVTQ[dP]GQ)
SMILES: CC[C@H](C)[C@@H]1NC(=O)[C@H]([C@@H](C)O)NC(=O)[C@H](CCCCN)NC(=O)[C@@H]2CCCN2C(=O)[C@H]([C@@H](C)O)NC(=O)CNC(=O)[C@H](CC(=O)O)NC(=O)CNC(=O)[C@H](CC(=O)O)NC(=O)[C@H](Cc2ccccc2)NC(=O)[C@H]([C@@H](C)O)NC(=O)[C@H]([C@@H](C)O)NC(=O)[C@H](CCC(=O)O)NC(=O)[C@H](CC(C)C)NC(=O)[C@H](Cc2c[nH]cn2)NC(=O)[C@H]([C@@H](C)O)NC(=O)[C@H](CCC(N)=O)NC(=O)CNC(=O)[C@H]2CCCN2C(=O)[C@H](CCC(N)=O)NC(=O)[C@H]([C@@H](C)O)NC(=O)[C@H](C(C)C)NC(=O)[C@H](CCCNC(=N)N)NC1=O
B7: cyclic nNOS β-hairpin peptide T105G (peptide)
peptide: cyclo(GHLETTFTGDGTPKTIRVTQ[dP]GQ)
SMILES: CC[C@H](C)[C@@H]1NC(=O)[C@H]([C@@H](C)O)NC(=O)[C@H](CCCCN)NC(=O)[C@@H]2CCCN2C(=O)[C@H]([C@@H](C)O)NC(=O)CNC(=O)[C@H](CC(=O)O)NC(=O)CNC(=O)[C@H]([C@@H](C)O)NC(=O)[C@H](Cc2ccccc2)NC(=O)[C@H]([C@@H](C)O)NC(=O)[C@H]([C@@H](C)O)NC(=O)[C@H](CCC(=O)O)NC(=O)[C@H](CC(C)C)NC(=O)[C@H](Cc2c[nH]cn2)NC(=O)CNC(=O)[C@H](CCC(N)=O)NC(=O)CNC(=O)[C@H]2CCCN2C(=O)[C@H](CCC(N)=O)NC(=O)[C@H]([C@@H](C)O)NC(=O)[C@H](C(C)C)NC(=O)[C@H](CCCNC(=N)N)NC1=O
B8: cyclic nNOS β-hairpin peptide T116P (peptide)
peptide: cyclo(THLETTFTGDGPPKTIRVTQ[dP]GQ)
SMILES: CC[C@H](C)[C@@H]1NC(=O)[C@H]([C@@H](C)O)NC(=O)[C@H](CCCCN)NC(=O)[C@@H]2CCCN2C(=O)[C@@H]2CCCN2C(=O)CNC(=O)[C@H](CC(=O)O)NC(=O)CNC(=O)[C@H]([C@@H](C)O)NC(=O)[C@H](Cc2ccccc2)NC(=O)[C@H]([C@@H](C)O)NC(=O)[C@H]([C@@H](C)O)NC(=O)[C@H](CCC(=O)O)NC(=O)[C@H](CC(C)C)NC(=O)[C@H](Cc2c[nH]cn2)NC(=O)[C@H]([C@@H](C)O)NC(=O)[C@H](CCC(N)=O)NC(=O)CNC(=O)[C@H]2CCCN2C(=O)[C@H](CCC(N)=O)NC(=O)[C@H]([C@@H](C)O)NC(=O)[C@H](C(C)C)NC(=O)[C@H](CCCNC(=N)N)NC1=O
B9: cyclic nNOS β-hairpin peptide T116N (peptide)
peptide: cyclo(THLETTFTGDGNPKTIRVTQ[dP]GQ)
SMILES: CC[C@H](C)[C@@H]1NC(=O)[C@H]([C@@H](C)O)NC(=O)[C@H](CCCCN)NC(=O)[C@@H]2CCCN2C(=O)[C@H](CC(N)=O)NC(=O)CNC(=O)[C@H](CC(=O)O)NC(=O)CNC(=O)[C@H]([C@@H](C)O)NC(=O)[C@H](Cc2ccccc2)NC(=O)[C@H]([C@@H](C)O)NC(=O)[C@H]([C@@H](C)O)NC(=O)[C@H](CCC(=O)O)NC(=O)[C@H](CC(C)C)NC(=O)[C@H](Cc2c[nH]cn2)NC(=O)[C@H]([C@@H](C)O)NC(=O)[C@H](CCC(N)=O)NC(=O)CNC(=O)[C@H]2CCCN2C(=O)[C@H](CCC(N)=O)NC(=O)[C@H]([C@@H](C)O)NC(=O)[C@H](C(C)C)NC(=O)[C@H](CCCNC(=N)N)NC1=O
B10: cyclic nNOS β-hairpin peptide T116W (peptide)
peptide: cyclo(THLETTFTGDGWPKTIRVTQ[dP]GQ)
SMILES: CC[C@H](C)[C@@H]1NC(=O)[C@H]([C@@H](C)O)NC(=O)[C@H](CCCCN)NC(=O)[C@@H]2CCCN2C(=O)[C@H](Cc2c[nH]c3ccccc23)NC(=O)CNC(=O)[C@H](CC(=O)O)NC(=O)CNC(=O)[C@H]([C@@H](C)O)NC(=O)[C@H](Cc2ccccc2)NC(=O)[C@H]([C@@H](C)O)NC(=O)[C@H]([C@@H](C)O)NC(=O)[C@H](CCC(=O)O)NC(=O)[C@H](CC(C)C)NC(=O)[C@H](Cc2c[nH]cn2)NC(=O)[C@H]([C@@H](C)O)NC(=O)[C@H](CCC(N)=O)NC(=O)CNC(=O)[C@H]2CCCN2C(=O)[C@H](CCC(N)=O)NC(=O)[C@H]([C@@H](C)O)NC(=O)[C@H](C(C)C)NC(=O)[C@H](CCCNC(=N)N)NC1=O
B11: cyclic nNOS β-hairpin peptide T116C (peptide)
peptide: cyclo(THLETTFTGDGCPKTIRVTQ[dP]GQ)
SMILES: CC[C@H](C)[C@@H]1NC(=O)[C@H]([C@@H](C)O)NC(=O)[C@H](CCCCN)NC(=O)[C@@H]2CCCN2C(=O)[C@H](CS)NC(=O)CNC(=O)[C@H](CC(=O)O)NC(=O)CNC(=O)[C@H]([C@@H](C)O)NC(=O)[C@H](Cc2ccccc2)NC(=O)[C@H]([C@@H](C)O)NC(=O)[C@H]([C@@H](C)O)NC(=O)[C@H](CCC(=O)O)NC(=O)[C@H](CC(C)C)NC(=O)[C@H](Cc2c[nH]cn2)NC(=O)[C@H]([C@@H](C)O)NC(=O)[C@H](CCC(N)=O)NC(=O)CNC(=O)[C@H]2CCCN2C(=O)[C@H](CCC(N)=O)NC(=O)[C@H]([C@@H](C)O)NC(=O)[C@H](C(C)C)NC(=O)[C@H](CCCNC(=N)N)NC1=O

Each binder was assayed against T1, (7× His)-PSD-95-PDZ2 wild type (UniProt P78352 160-246) (assay: FP competition).
T1 construct: domain: PDZ2; recombinant from E. coli; also called PSD-95-PDZ2 WT; not shown: 7x His tag
T1 sequence (P78352 160-246): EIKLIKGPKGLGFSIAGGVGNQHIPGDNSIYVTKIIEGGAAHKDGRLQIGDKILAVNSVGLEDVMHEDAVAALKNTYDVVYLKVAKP

Row | Ki | Relative Ki (Ki mut/Ki WT) | Binder
1 | 1200 nM | 0.8 | B1
2 | 7190 nM | 4.79 | B2
3 | 18900 nM | 12.6 | B3
4 | 24500 nM | 2.51 | B4
5 | 1580 nM | 1.05 | B5
6 | 950 nM | 0.63 | B6
7 | 4500 nM | 3 | B7
8 | 1160 nM | 0.77 | B8
9 | 510 nM | 0.34 | B9
10 | 1040 nM | 0.69 | B10
11 | 1360 nM | 0.91 | B11
